Data taken from the DeepSol protein solubility set.

Assay: soluble on expression in E. coli; label from the status in PepcDB or PDB records

## MNNNENQTLISGGTVVTPTTEIEKGTVAFSNGKIVSVEAESHDNPDIDATGKYVLPGLVDLHGDDIERHLFPRAEERVDTTIALDRCDIANASAGVTTKYHAISFEDVPDDNRSIELARRLAEQIRNFNYETGARVDNRLHMRCELTNEASVDAVSEEIKSGGDLVSLVTHVPGTGQFTGENTLAQRYDRSDGELETGLQSLKTRRSGVPEAELLARAREVTELASNRNMTVASHDDETVASVDNAAAIGVDISEYPLSHRVAQRATELNLTVAMGAPNVVRGGSLWDGPDASQAIKDGVVDILCSDFRPQSLLSSVFIENDEPLKDRVFRVSTAPAAAAGLYDRGRLECGARADIIIVDPDPSPSIARTYVAGDQVYCSA
  soluble on expression in E. coli: not soluble

## MGSDKIHHHHHHMMPELKSALYAGKVMHQRLKPRRHRLSYRIFFLLLDLDEIDAMSKRLRLLSHNRFNLFGFADADHGDGSGGSLKAYVEDMLKTAGIETDAGPIRLLSMPRMLGYAFNPISIYFCHSRQGDLVAILYEVNNTFGQRHSYLIPVGERHDETVRQHCDKRFYVSPFMAMGLNYRFRIGLPGENVAIHITASDDQGPLMVASFAGKRRALSDASLLRAFISYPLLTLKVTAGIHWEALRLWAKGIRLQERPAPPHNSITHVAMHGRLRRKAEPDVI
  soluble on expression in E. coli: not soluble

## PLGSDHWGKGDMSDEDDENEFFDAPEIITMPENLGHKRTGSHHHHHH
  soluble on expression in E. coli: soluble

## MASYDKISDGWYRVCPKRSSNRALITVKLPFSTLFRLKPMTDITPFANRLGKNIKHLMKWAKRNGIEAWRIYDRDIPQFPFAADVYGDRIHLQEYDTGWLMRPEEYEAWLAEVLEAVAFVTGFAPEQIRLKRRERQKGLQQYEKTGKAGDDFVITENGRKFWVNLDKYLDTGLFLDHRNTRKKVGETAAGKRFLNLFSYTGSFTVYAATGGAASSETVDLSNTYLDWAKRNFELNGIDTERHKIVRADVFQYLQTAYGEGRRFDLIVMDPPSFSNSKKMSDILDIQRDHKKLIDGAVKLLASDGILYFSNNLRSFVLDDLVSEQYAVKDISKQSVPEDFRNKKIHRCWEIRHKS
  soluble on expression in E. coli: not soluble

## MSAASTTSTPAAAAVAPQQPESLYRVVQTLGEGAFGEVLLIVNTKNPEVAAAMKKINIANKSKDFIDNIRKEYLLQKRVSAVGHDNVIRMIGMRNDPQFYYLFLEYADGGELFDKIEPDCGMSPVFAQFYFKQLICGLKFIHDNDVVHRDIKPENLLLTGTHVLKISDFGMATLYRNKGEERLLDLSCGTIPYAAPELCAGKKYRGPPVDVWSSGIVLIAMLTGELPWDRASDASQSYMGWISNTSLDERPWKKIDVRALCMLRKIVTDKTDKRATIEQIQADPWYQHNFGQVETPNGRPLKRARNNDENITCTQQAECSAKRRHLETPNEKSTLAERQNASFSQPTKTEDLLLTQHIDMSQTNSVRKKPSEIGGFLAKISNFSVNLLQRMVCRMTRFCVVTDIRSTYQKVARASEHAGFGVRETDDYRLLVTWREVSMMVSLYTMGDIPDKPRVMVDFRRSRGDGIQFKKMFMDVRNRMHEWICTDGNNWLANLGYVPRNPQIVNGGGVNVEHSASSINVDV
  soluble on expression in E. coli: not soluble

## MIEFNHVSKTFGDQQAVSDLNLHFSEGSFSVLIGTSGSGKSTTLKMINRLVEHDSGTIRFAGEEIRSLPVLELRRRMGYAIQSIGLFPHWTVAQNIATVPQLQKWSRARINDRIDELMALLGLESALRDRYPHQLSGGQQQRVGVARALAADPQVLLMDEPFGALDPVTRGALQQEMTRIHQLLGRTIVLVTHDIDEALRLADHLVLMDGGHVIQQGSPLSMLTSPENDFVQAFFGRSELGVRLLSLRSVGDYVRRHEQLSGDALVEEMTLRDALSMFVARRCDVLPVANQQGEPCGTLHFRDLLSETSPRETTV
  soluble on expression in E. coli: not soluble

## MDDRGGSFVAVRRISQGLERGSVYHSSSAEVVAGSAAWLGRGLSCVCVQGRDGDPRPSFDLTPAQEECLQRLQSRIDVAYDSSIPQHQEALKDLWKLAFPEEELHGIVSDQWKEMGWQGKDPSTDFRGGGFISLENLLYFARKFPKSFHGLLRKQVGDRSVWEYPFAVAGINITFMLIQMLDLEAVNESAFDLLYCIAFKLMDQQWLSMRASYMEFNTVMKSTRRQLEREIMIEDITSLEDLPSYSLLSQ
  soluble on expression in E. coli: soluble

## SLERLIRGMQYHYQWLTPFDAKRTTVVCLHGFTGTLATFAAVFPSQTPYNVLGIDLPGHGATASLVAPERYTMKQVCHDIAELTESLNLPCFCLLGYSMGARTALGFALHYPQKVQHLLLESGSPGLATAAERQARICQDHRLAERLLEEPLVDFIDFWQELPLFQTQKALSVAQQMAIRQERLSQSAFGLVSSLWYMGTGAQESYWERLAELQPIPTDLLVGGEDQKFIGIAKKMQARQPLLRLTIFPEAGHCIHLEQPTIFYEKVTALLEGAI
  soluble on expression in E. coli: soluble
